Measurements reported in patent US11370847B2, “Single domain antibodies directed against intracellular antigens” (Singh Biotechnology, LLC, priority 2014, dated 2022).
Where “and” joins values, the source holds several entries; their conditions need not be identical. Equal entries are not always repeated.

Experiments:
MDA-MB-231 cells = test: MTT proliferation assay, MDA-MB-231; assay type: cell-based, human; settings: for Mean: mean absorbance;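 for all read-outs here: proliferation of cultured human cancer cells read by MTT, with treated groups compared against a vehicle control group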
[1] = target: T1, active human TNF-α full length protein (Homo sapiens, UniProt P01375); test: TNF-α binding ELISA; settings: for detection in coated versus non-coated wells: 0.5 μg/mL coating antigen, sdAb at 1 μg/mL; for detection in TNF-α ELISA: Experiment 1, 1 μg/mL sdAb; for OD450 Values: Non-Coated wells (non-specific binding), sdAb 1 μg/mL
T1 construct: active human TNF-α full length protein; purchased Abcam
Experimental: In this Example, the binding of anti-TNF-α sdAbs to active human TNF-α full length protein was assessed using an enzyme linked immunosorbent assay (ELISA) format. Additionally, the feasibility of utilizing a secondary antibody targeted to the his tag portion of the sdAbs was assessed.
The test articles for this study were anti-TNF-α VHH62 (SEQ ID NO:47) sdAb, TNF-α VHH66 (SEQ ID NO:45) sdAb, and anti-TNF-α VHH69 (SEQ ID NO:46) sdAb (Experiment 1).
For the assays to assess the binding of the sdAbs to TNF-α protein (Experiment 1, 4 and 5), a standard sandwich ELISA format was utilized. […] Plates were incubated overnight at 2-8° C. After the incubation, plates were washed (3×) and blocked (3% Bovine Serum Albumin (BSA) in Phosphate Buffered Saline (PBS)) for at least one hour at room temperature.
After removal of the blocking buffer and washing (3×), samples were added to the appropriate wells of the ELISA plates and incubated at room temperature with shaking (150 rpm) for at least one hour. The secondary antibody (rabbit anti-llama biotinylated antibody at either a1:5,000 or 10,000 dilution) was then added to each well and incubated with shaking for at least one hour at room temperature.
After the incubation with secondary antibody, the plates were again washed (3×) and horseradish peroxidase (HRP) at either a 1:25,000 or 1:50,000 dilution was added to each well. Plates were incubated with shaking for at least one hour at room temperature. A final wash (3×) was performed followed by the addition of TMB (Tetramethylbenzidine) substrate. After a 20 to 25 minute incubation at room temperature, stop solution was added to halt the colorimetric reaction. The absorbance at 450 nm was measured on a VersaMax instrument utilizing SoftMax Pro GxP version 5.4 software from Molecular Devices (Sunnyvale, Calif.).
The final experiment performed was to confirm that the results from the ELISA testing were due to binding to the TNF-α protein and not non-specific binding of the sdAb. For this determination, a comparison was made between wells coated with 0.5 μg/mL of coating antigen and non-coated wells. […] This experiment confirms that the detection seen with the previous experiments was due to the specific binding of the VHH to the coating antigen and not due to non-specific binding.

TNF-α = target: T2, TNF-α (Homo sapiens, UniProt P01375); test: Inhibition of TNF-α cytotoxicity against U937 by anti-TNF-α VHHs; assay type: cell-based; settings: constant dose of TNF-α at EC50
T2 construct: purchased Sigma-Aldrich
Experimental: The concentration of TNF-α required to show measurable modulation of activity in the U937 human […] cell line was evaluated by quantitation of the ATP present, which signals the presence of metabolically active cells using Promega's Cell Titer-Glo® Luminescent Cell Viability assay.
The U937 cells were seeded in a clear polystyrene 96-well microculture plate (Corning® Costar® 96-well flat bottom plate, Cat. #3997) in a total volume of 90 μL/well. After 24 hours of incubation in a humidified incubator at 37° C. with 5% CO2 and 95% air, 5 μL of 20×, serially diluted TNF-α in growth medium was added to each well in duplicate (10 pt dose response, highest concentration 20 ng/mL). Additionally, 5 μL of 20×, diluted staurosporine in growth medium was added to each well in duplicate (concentration 1 nM).
After 24 hours of culture in the presence of test agents, the concentration of compound required to show measurable modulation of TNF-α activity in the U937 cell line as evaluated by quantitation of the ATP present. Percent cell growth was calculated relative to untreated control wells. All tests were performed in duplicate at each concentration level.
The EC50 value for the test agents was estimated using Prism 6.05 by curve-fitting the data using the following four parameter-logistic equation: […]

[2] = tested on: rabbit anti-llama biotinylated antibody or his-probe (H-3) biotin labeled antibody; test: ELISA of secondary antibody binding to coated sdAbs; settings: Experiment 3, sdAb coated at 1 μg/mL, stored 1:100 dilution
Experimental: Two assays (Experiment 2 and 3) were performed to assess the binding of the secondary antibody to the sdAbs. A similar ELISA method was utilized except the sdAbs were directly coated onto the assay plate at a concentration of 1 μg/mL. Plates were incubated overnight at 2-8° C. After the incubation, plates were washed (3×) and blocked (3% BSA in PBS) for at least one hour at room temperature.
After removal of the blocking buffer and washing (3×), the secondary antibodies, either rabbit anti-llama biotinylated antibody or his-probe (H-3) biotin labeled antibody at was then added at a 1:5,000 dilution to each well and incubated with shaking for at least one hour at room temperature. Only the rabbit anti-llama biotinylated antibody was used in Experiment 2. Both antibodies were run in parallel in Experiment 3.
After the incubation with secondary antibody, the plates were again washed (3×) and HRP at a 1:50,000 dilution was added to each well. Plates were incubated with shaking for at least one hour at room temperature. One last wash (3×) was performed followed by the addition of TMB substrate and plates were incubated at room temperature. For the anti-llama biotinylated antibody stop solution was added to halt the colorimetric reaction at 10 minutes. The his-probe (H-3) biotin labeled antibody was allowed to incubate for 20 minutes prior to stopping. The absorbance at 450 nm was measured as before.

STAT3 = STAT3 reporter GloResponse SIE-luc2P/HEK293 assay, IL-6 induction; assay type: cell-based; settings: for effect on IL-6 induction of the STAT3 reporter: 24 and 48 hours treatment, VHH13 and VHH69 at highest concentration, VHH14 at both concentrations;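 for all read-outs here: SIE-luc2P/HEK293 reporter cells stimulated with IL-6 at 40 ng/mL (EC80) after pretreatment, luciferase luminescence (RLU) read the following day, triplicate wells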
SIE-luc2P/HEK293 cells = test: BCA protein concentration of reporter cells; assay type: cell-based
[3] = Rabbit anti-Llama Secondary Antibody
[4] = 24 Hour Treatment Prior to IL6 Induction, higher conc.: VHH13 55.8 μg/mL, VHH14 84.3 μg/mL, BB1608 4.16 μM, VHH69 50.5 μg/mL
[5] = 24 Hour Treatment Prior to IL6 Induction, lower conc.: VHH13, VHH14, VHH69 10 μg/mL, BB1608 2 μM
[6] = 48 Hour Treatment Prior to IL6 Induction, higher conc.: VHH13 55.8 μg/mL, VHH14 84.3 μg/mL, BB1608 4.16 μM, VHH69 50.5 μg/mL
[7] = 48 Hour Treatment Prior to IL6 Induction, lower conc.: VHH13, VHH14, VHH69 10 μg/mL, BB1608 2 μM

T1 sequence (P01375 77-233 limits assumed): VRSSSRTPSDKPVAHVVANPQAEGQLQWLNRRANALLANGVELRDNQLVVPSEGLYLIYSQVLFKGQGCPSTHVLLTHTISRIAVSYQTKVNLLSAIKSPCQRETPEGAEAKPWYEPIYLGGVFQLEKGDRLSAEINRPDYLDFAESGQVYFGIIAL
T2 sequence (P01375 77-233 limits assumed): as above

MPT His Tag: SBT-100 produced by Microprotein Technologies, His tag preparation
inhibition compared with other SBT-100 preparations (MDA-MB-231 cells; MDA-MB-231): greatest inhibition | MTT absorbance, single replicates (MDA-MB-231 cells; MDA-MB-231, 50 μg/ml): 0.095 and 0.091 and 0.102 and 0.1 and 0.087 and 0.092 | Mean (MDA-MB-231 cells; MDA-MB-231, 50 μg/ml): 0.0945 | MTT absorbance, single replicates (MDA-MB-231 cells; MDA-MB-231, 100 μg/ml): 0.74 and 0.8 and 0.82 | Mean (MDA-MB-231 cells; MDA-MB-231, 100 μg/ml): 0.079

B1: anti-TNF-α VHH62: anti-TNF-α sdAb, SEQ ID NO:47 (protein)
VHH: QVQLVESGGGPVQAGETLRLSCTASGFTFAEADMGWYRQAPGHECELVSTITTEGITSEASSYYADSVRGRFTISRDNAKNMVYLQMNSLKPEDTAVYYCAPDPYAYSTYSDYCSWAQGTQGTLVTVSS
modifications: Camelid
detection in coated versus non-coated wells [1]: not detected in either coated or non-coated wells | detection in TNF-α ELISA [1]: little to no detection | OD450 ([1]; Experiment 4, original and new receipt, dilutions starting at 1 μg/mL): < 0.2 OD450 | OD450 Values [1]: −0.001 | inhibition of TNF-α killing of U937 (TNF-α): inhibit killing of U937 by TNF-α | OD450 Values ([2]; His-probe (H-3)): 0.196 | OD450 Values [2, 3]: 2.341

B2: anti-TNF-α VHH69: anti-TNF-α sdAb, SEQ ID NO:46 (protein)
VHH: EVQLVESGGGSVLAGGSLRLSCVASGFTSRYNYMAWFRQAPGKEREGVATIGTASGSADYYGSVKDRFTISQDNAKNTVYLQMNSLKPEDTAMYYCAARTYGTISLTPSDYRYWGQGTLVTVSS
modifications: Camelid
detection in coated versus non-coated wells [1]: detected in coated wells but not in non-coated wells | detection in TNF-α ELISA [1]: little to no detection | OD450 Values [1]: 0.007 | Average RLU (STAT3; [4]): 198596 RLU | Average RLU with Media Blank (STAT3; [4]): 198571 RLU | Fold-Induction RLU/RLU of −IL6 (STAT3; [4]): 434 | Luminescence (replicate wells) (STAT3; [4]): 203139 RLU and 194320 RLU and 198330 RLU | Average RLU (STAT3; [5]): 169752 RLU | Average RLU with Media Blank (STAT3; [5]): 169726 RLU | Fold-Induction RLU/RLU of −IL6 (STAT3; [5]): 371 | Luminescence (replicate wells) (STAT3; [5]): 159115 RLU and 184364 RLU and 165776 RLU | effect on IL-6 induction of the STAT3 reporter (STAT3): enhancement of the IL-6 induction | Average RLU (STAT3; [6]): 225726 RLU | Average RLU with Media Blank (STAT3; [6]): 225694 RLU | Fold-Induction RLU/RLU of −IL6 (STAT3; [6]): 452 | Luminescence (replicate wells) (STAT3; [6]): 219104 RLU and 237816 RLU and 220259 RLU | Average RLU (STAT3; [7]): 172988 RLU | Average RLU with Media Blank (STAT3; [7]): 172955 RLU | Fold-Induction RLU/RLU of −IL6 (STAT3; [7]): 347 | Luminescence (replicate wells) (STAT3; [7]): 155927 RLU and 191241 RLU and 171796 RLU | inhibition of TNF-α killing of U937 (TNF-α): inhibit killing of U937 by TNF-α | OD450 Values ([2]; His-probe (H-3)): 0.153 | OD450 Values [2, 3]: 0.443 | Protein concentration (SIE-luc2P/HEK293 cells; [4]): 213 | Protein concentration (SIE-luc2P/HEK293 cells; [5]): 237 | Protein concentration (SIE-luc2P/HEK293 cells; [7]): 222

B3: anti-STAT3 VHH14: second anti-STAT3 sdAb, SEQ ID NO:4 (protein)
VHH: QVQLVESGGGSVQAGGSLRLSCVASTYTGCMGWFRQAPGKEREGVAALSSRGFAGHYTDSVKGRFSISRDYVKNAVYLQMNTVKPEDAAMYYCAAREGWECGETWLDRTAGGHTYWGQGTLVTVSS
modifications: Camelid
effect on IL-6 induction of the STAT3 reporter (STAT3): enhancement of the IL-6 induction
